Laboratory results: the Human Domainome abundance scans (Beltran et al. 2025)
± gives the uncertainty stated by the source.

B1: Protein C-ets-1, residues 55 to 135; numbered along this chain, P14921 (parent)
chain: GFTKEQQRLGIPKDPRQWTETHVRDWVMWAVNEFSLKGVDFQKFCMNGAALCALGKDCFLELAPDFVGDILWEHLEILQKE

Variants of: B1
Assay: abundance fitness (aPCA) (normalised: wild type 0, dead -1); higher = more abundant; growth selection in yeast, the domain comes from the species named
Conditions: Homo sapiens

Variant | abundance fitness
GFTKEQQRLGIPKDPRQWTECHVRDWVMWAVNEFSLKGVDFQKFCMNGAALCALGKDCFLELAPDFVGDILWEHLEILQKE [T21C] | -0.089 ± 0.049
GFTKEQQRLGIPKDPRQWTEMHVRDWVMWAVNEFSLKGVDFQKFCMNGAALCALGKDCFLELAPDFVGDILWEHLEILQKE [T21M] | -0.058 ± 0.059
GFTKEQQRLGIPKDPRQWTEYHVRDWVMWAVNEFSLKGVDFQKFCMNGAALCALGKDCFLELAPDFVGDILWEHLEILQKE [T21Y] | 0.043 ± 0.12
GFTKEQQRLGIPKDPRQWTEDHVRDWVMWAVNEFSLKGVDFQKFCMNGAALCALGKDCFLELAPDFVGDILWEHLEILQKE [T21D] | 0.081 ± 0.065
GFTKEQQRLGIPKDPRQWTEHHVRDWVMWAVNEFSLKGVDFQKFCMNGAALCALGKDCFLELAPDFVGDILWEHLEILQKE [T21H] | -0.067 ± 0.074
GFTKEQQRLGIPKDPRQWTEWHVRDWVMWAVNEFSLKGVDFQKFCMNGAALCALGKDCFLELAPDFVGDILWEHLEILQKE [T21W] | -0.196 ± 0.057
GFTKEQQRLGIPKDPRQWTERHVRDWVMWAVNEFSLKGVDFQKFCMNGAALCALGKDCFLELAPDFVGDILWEHLEILQKE [T21R] | 0.039 ± 0.029
GFTKEQQRLGIPKDPRQWTEKHVRDWVMWAVNEFSLKGVDFQKFCMNGAALCALGKDCFLELAPDFVGDILWEHLEILQKE [T21K] | -0.022 ± 0.073
GFTKEQQRLGIPKDPRQWTEIHVRDWVMWAVNEFSLKGVDFQKFCMNGAALCALGKDCFLELAPDFVGDILWEHLEILQKE [T21I] | -0.143 ± 0.056
GFTKEQQRLGIPKDPRQWTEVHVRDWVMWAVNEFSLKGVDFQKFCMNGAALCALGKDCFLELAPDFVGDILWEHLEILQKE [T21V] | -0.041 ± 0.041
GFTKEQQRLGIPKDPRQWTEEHVRDWVMWAVNEFSLKGVDFQKFCMNGAALCALGKDCFLELAPDFVGDILWEHLEILQKE [T21E] | -0.073 ± 0.071
GFTKEQQRLGIPKDPRQWTEFHVRDWVMWAVNEFSLKGVDFQKFCMNGAALCALGKDCFLELAPDFVGDILWEHLEILQKE [T21F] | -0.11 ± 0.07
GFTKEQQRLGIPKDPRQWTEQHVRDWVMWAVNEFSLKGVDFQKFCMNGAALCALGKDCFLELAPDFVGDILWEHLEILQKE [T21Q] | 0.002 ± 0.053
GFTKEQQRLGIPKDPRQWTESHVRDWVMWAVNEFSLKGVDFQKFCMNGAALCALGKDCFLELAPDFVGDILWEHLEILQKE [T21S] | -0.016 ± 0.032
GFTKEQQRLGIPKDPRQWTELHVRDWVMWAVNEFSLKGVDFQKFCMNGAALCALGKDCFLELAPDFVGDILWEHLEILQKE [T21L] | -0.064 ± 0.037
GFTKEQQRLGIPKDPRQWTEAHVRDWVMWAVNEFSLKGVDFQKFCMNGAALCALGKDCFLELAPDFVGDILWEHLEILQKE [T21A] | 0.002 ± 0.033
GFTKEQQRLGIPKDPRQWTEGHVRDWVMWAVNEFSLKGVDFQKFCMNGAALCALGKDCFLELAPDFVGDILWEHLEILQKE [T21G] | -0.008 ± 0.029
GFTKEQQRLGIPKDPRQMTETHVRDWVMWAVNEFSLKGVDFQKFCMNGAALCALGKDCFLELAPDFVGDILWEHLEILQKE [W18M] | -1.08 ± 0.27
GFTKEQQRLGIPKDPRQQTETHVRDWVMWAVNEFSLKGVDFQKFCMNGAALCALGKDCFLELAPDFVGDILWEHLEILQKE [W18Q] | -0.899 ± 0.23
GFTKEQQRLGIPKDPRQKTETHVRDWVMWAVNEFSLKGVDFQKFCMNGAALCALGKDCFLELAPDFVGDILWEHLEILQKE [W18K] | -1.01 ± 0.18
GFTKEQQRLGIPKDPRQHTETHVRDWVMWAVNEFSLKGVDFQKFCMNGAALCALGKDCFLELAPDFVGDILWEHLEILQKE [W18H] | -1.05 ± 0.27
GFTKEQQRLGIPKDPRQDTETHVRDWVMWAVNEFSLKGVDFQKFCMNGAALCALGKDCFLELAPDFVGDILWEHLEILQKE [W18D] | -0.962 ± 0.24
GFTKEQQRLGIPKDPRQRTETHVRDWVMWAVNEFSLKGVDFQKFCMNGAALCALGKDCFLELAPDFVGDILWEHLEILQKE [W18R] | -0.733 ± 0.061

Variant | abundance fitness
GFTKEQQRLGIPKDPRQTTETHVRDWVMWAVNEFSLKGVDFQKFCMNGAALCALGKDCFLELAPDFVGDILWEHLEILQKE [W18T] | -0.999 ± 0.13
GFTKEQQRLGIPKDPRQLTETHVRDWVMWAVNEFSLKGVDFQKFCMNGAALCALGKDCFLELAPDFVGDILWEHLEILQKE [W18L] | -0.954 ± 0.077
GFTKEQQRLGIPKDPRQVTETHVRDWVMWAVNEFSLKGVDFQKFCMNGAALCALGKDCFLELAPDFVGDILWEHLEILQKE [W18V] | -0.891 ± 0.077
GFTKEQQRLGIPKDPRQGTETHVRDWVMWAVNEFSLKGVDFQKFCMNGAALCALGKDCFLELAPDFVGDILWEHLEILQKE [W18G] | -0.992 ± 0.074
GFTKEQQRLGIPKDPRQNTETHVRDWVMWAVNEFSLKGVDFQKFCMNGAALCALGKDCFLELAPDFVGDILWEHLEILQKE [W18N] | -0.965 ± 0.21
GFTKEQQRLGIPKDPRQETETHVRDWVMWAVNEFSLKGVDFQKFCMNGAALCALGKDCFLELAPDFVGDILWEHLEILQKE [W18E] | -0.814 ± 0.086
GFTKEQQRLGIPKDPRQFTETHVRDWVMWAVNEFSLKGVDFQKFCMNGAALCALGKDCFLELAPDFVGDILWEHLEILQKE [W18F] | -1.11 ± 0.2
GFTKEQQRLGIPKDPRQWTETIVRDWVMWAVNEFSLKGVDFQKFCMNGAALCALGKDCFLELAPDFVGDILWEHLEILQKE [H22I] | -0.881 ± 0.17
GFTKEQQRLGIPKDPRQWTETCVRDWVMWAVNEFSLKGVDFQKFCMNGAALCALGKDCFLELAPDFVGDILWEHLEILQKE [H22C] | -0.801 ± 0.12
GFTKEQQRLGIPKDPRQWTETEVRDWVMWAVNEFSLKGVDFQKFCMNGAALCALGKDCFLELAPDFVGDILWEHLEILQKE [H22E] | -0.062 ± 0.057
GFTKEQQRLGIPKDPRQWTETGVRDWVMWAVNEFSLKGVDFQKFCMNGAALCALGKDCFLELAPDFVGDILWEHLEILQKE [H22G] | -0.565 ± 0.043
GFTKEQQRLGIPKDPRQWTETFVRDWVMWAVNEFSLKGVDFQKFCMNGAALCALGKDCFLELAPDFVGDILWEHLEILQKE [H22F] | -0.965 ± 0.24
GFTKEQQRLGIPKDPRQWTETDVRDWVMWAVNEFSLKGVDFQKFCMNGAALCALGKDCFLELAPDFVGDILWEHLEILQKE [H22D] | -0.047 ± 0.066
GFTKEQQRLGIPKDPRQWTETAVRDWVMWAVNEFSLKGVDFQKFCMNGAALCALGKDCFLELAPDFVGDILWEHLEILQKE [H22A] | -0.33 ± 0.032
GFTKEQQRLGIPKDPRQWTVTHVRDWVMWAVNEFSLKGVDFQKFCMNGAALCALGKDCFLELAPDFVGDILWEHLEILQKE [E20V] | -0.019 ± 0.023
GFTKEQQRLGIPKDPRQWTITHVRDWVMWAVNEFSLKGVDFQKFCMNGAALCALGKDCFLELAPDFVGDILWEHLEILQKE [E20I] | -0.128 ± 0.045
GFTKEQQRLGIPKDPRQWTKTHVRDWVMWAVNEFSLKGVDFQKFCMNGAALCALGKDCFLELAPDFVGDILWEHLEILQKE [E20K] | -0.036 ± 0.063
GFTKEQQRLGIPKDPRQWTATHVRDWVMWAVNEFSLKGVDFQKFCMNGAALCALGKDCFLELAPDFVGDILWEHLEILQKE [E20A] | -0.035 ± 0.025
GFTKEQQRLGIPKDPRQWTFTHVRDWVMWAVNEFSLKGVDFQKFCMNGAALCALGKDCFLELAPDFVGDILWEHLEILQKE [E20F] | -0.396 ± 0.05
GFTKEQQRLGIPKDPRQWTNTHVRDWVMWAVNEFSLKGVDFQKFCMNGAALCALGKDCFLELAPDFVGDILWEHLEILQKE [E20N] | -0.114 ± 0.072
GFTKEQQRLGIPKDPRQWTQTHVRDWVMWAVNEFSLKGVDFQKFCMNGAALCALGKDCFLELAPDFVGDILWEHLEILQKE [E20Q] | -0.021 ± 0.055
GFTKEQQRLGIPKDPRQWTYTHVRDWVMWAVNEFSLKGVDFQKFCMNGAALCALGKDCFLELAPDFVGDILWEHLEILQKE [E20Y] | -0.224 ± 0.05
GFTKEQQRLGIPKDPRQWTTTHVRDWVMWAVNEFSLKGVDFQKFCMNGAALCALGKDCFLELAPDFVGDILWEHLEILQKE [E20T] | -0.036 ± 0.04

Variant | abundance fitness
GFTKEQQRLGIPKDPRQWTPTHVRDWVMWAVNEFSLKGVDFQKFCMNGAALCALGKDCFLELAPDFVGDILWEHLEILQKE [E20P] | -0.059 ± 0.035
GFTKEQQRLGIPKDPRQWTLTHVRDWVMWAVNEFSLKGVDFQKFCMNGAALCALGKDCFLELAPDFVGDILWEHLEILQKE [E20L] | -0.209 ± 0.025
GFTKEQQRLGIPKDPRQWTWTHVRDWVMWAVNEFSLKGVDFQKFCMNGAALCALGKDCFLELAPDFVGDILWEHLEILQKE [E20W] | -0.463 ± 0.045
GFTKEQQRLGIPKDPRQWTMTHVRDWVMWAVNEFSLKGVDFQKFCMNGAALCALGKDCFLELAPDFVGDILWEHLEILQKE [E20M] | -0.078 ± 0.037
GFTKEQQRLGIPKDPRQWTGTHVRDWVMWAVNEFSLKGVDFQKFCMNGAALCALGKDCFLELAPDFVGDILWEHLEILQKE [E20G] | -0.264 ± 0.023
GFTKEQQRLGIPKDPRQWTCTHVRDWVMWAVNEFSLKGVDFQKFCMNGAALCALGKDCFLELAPDFVGDILWEHLEILQKE [E20C] | -0.105 ± 0.042
GFTKEQQRLGIPKDPRQWTDTHVRDWVMWAVNEFSLKGVDFQKFCMNGAALCALGKDCFLELAPDFVGDILWEHLEILQKE [E20D] | -0.107 ± 0.032
GFTKEQQRLGIPKDPRQWMETHVRDWVMWAVNEFSLKGVDFQKFCMNGAALCALGKDCFLELAPDFVGDILWEHLEILQKE [T19M] | -0.345 ± 0.053
GFTKEQQRLGIPKDPRQWNETHVRDWVMWAVNEFSLKGVDFQKFCMNGAALCALGKDCFLELAPDFVGDILWEHLEILQKE [T19N] | -0.16 ± 0.084
GFTKEQQRLGIPKDPRQWVETHVRDWVMWAVNEFSLKGVDFQKFCMNGAALCALGKDCFLELAPDFVGDILWEHLEILQKE [T19V] | -0.635 ± 0.045
GFTKEQQRLGIPKDPRQWHETHVRDWVMWAVNEFSLKGVDFQKFCMNGAALCALGKDCFLELAPDFVGDILWEHLEILQKE [T19H] | -0.153 ± 0.096
GFTKEQQRLGIPKDPRQWWETHVRDWVMWAVNEFSLKGVDFQKFCMNGAALCALGKDCFLELAPDFVGDILWEHLEILQKE [T19W] | -0.945 ± 0.11
GFTKEQQRLGIPKDPRQWRETHVRDWVMWAVNEFSLKGVDFQKFCMNGAALCALGKDCFLELAPDFVGDILWEHLEILQKE [T19R] | -0.205 ± 0.03
GFTKEQQRLGIPKDPRQWIETHVRDWVMWAVNEFSLKGVDFQKFCMNGAALCALGKDCFLELAPDFVGDILWEHLEILQKE [T19I] | -0.705 ± 0.13
GFTKEQQRLGIPKDPRQWEETHVRDWVMWAVNEFSLKGVDFQKFCMNGAALCALGKDCFLELAPDFVGDILWEHLEILQKE [T19E] | -0.155 ± 0.064
GFTKEQQRLGIPKDPRQWSETHVRDWVMWAVNEFSLKGVDFQKFCMNGAALCALGKDCFLELAPDFVGDILWEHLEILQKE [T19S] | -0.052 ± 0.033
GFTKEQQRLGIPKDPRQWPETHVRDWVMWAVNEFSLKGVDFQKFCMNGAALCALGKDCFLELAPDFVGDILWEHLEILQKE [T19P] | -0.936 ± 0.091
GFTKEQQRLGIPKDPRQWLETHVRDWVMWAVNEFSLKGVDFQKFCMNGAALCALGKDCFLELAPDFVGDILWEHLEILQKE [T19L] | -0.376 ± 0.038
GFTKEQQRLGIPKDPRQWYETHVRDWVMWAVNEFSLKGVDFQKFCMNGAALCALGKDCFLELAPDFVGDILWEHLEILQKE [T19Y] | -0.642 ± 0.091
GFTKEQQRLGIPKDPRQWQETHVRDWVMWAVNEFSLKGVDFQKFCMNGAALCALGKDCFLELAPDFVGDILWEHLEILQKE [T19Q] | -0.228 ± 0.068
GFTKEQQRLGIPKDPRQWFETHVRDWVMWAVNEFSLKGVDFQKFCMNGAALCALGKDCFLELAPDFVGDILWEHLEILQKE [T19F] | -0.858 ± 0.11
GFTKEQQRLGIPKDPRQWCETHVRDWVMWAVNEFSLKGVDFQKFCMNGAALCALGKDCFLELAPDFVGDILWEHLEILQKE [T19C] | -0.221 ± 0.078
